The values below are quoted from earlier work in publication PMC2649756.

In the data set the target is βI-spectrin 1898-2083 (Homo sapiens) (UniProt P11277). Conditions: cited from earlier work.
Sequence of βI-spectrin 1898-2083 (Homo sapiens) (P11277 1898-2083): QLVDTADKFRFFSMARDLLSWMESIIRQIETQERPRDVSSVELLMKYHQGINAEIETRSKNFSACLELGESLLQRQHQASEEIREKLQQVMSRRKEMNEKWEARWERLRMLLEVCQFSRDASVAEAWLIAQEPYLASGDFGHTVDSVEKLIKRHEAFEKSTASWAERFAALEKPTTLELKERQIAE

Sequence of αI-spectrin (P02549 whole entry): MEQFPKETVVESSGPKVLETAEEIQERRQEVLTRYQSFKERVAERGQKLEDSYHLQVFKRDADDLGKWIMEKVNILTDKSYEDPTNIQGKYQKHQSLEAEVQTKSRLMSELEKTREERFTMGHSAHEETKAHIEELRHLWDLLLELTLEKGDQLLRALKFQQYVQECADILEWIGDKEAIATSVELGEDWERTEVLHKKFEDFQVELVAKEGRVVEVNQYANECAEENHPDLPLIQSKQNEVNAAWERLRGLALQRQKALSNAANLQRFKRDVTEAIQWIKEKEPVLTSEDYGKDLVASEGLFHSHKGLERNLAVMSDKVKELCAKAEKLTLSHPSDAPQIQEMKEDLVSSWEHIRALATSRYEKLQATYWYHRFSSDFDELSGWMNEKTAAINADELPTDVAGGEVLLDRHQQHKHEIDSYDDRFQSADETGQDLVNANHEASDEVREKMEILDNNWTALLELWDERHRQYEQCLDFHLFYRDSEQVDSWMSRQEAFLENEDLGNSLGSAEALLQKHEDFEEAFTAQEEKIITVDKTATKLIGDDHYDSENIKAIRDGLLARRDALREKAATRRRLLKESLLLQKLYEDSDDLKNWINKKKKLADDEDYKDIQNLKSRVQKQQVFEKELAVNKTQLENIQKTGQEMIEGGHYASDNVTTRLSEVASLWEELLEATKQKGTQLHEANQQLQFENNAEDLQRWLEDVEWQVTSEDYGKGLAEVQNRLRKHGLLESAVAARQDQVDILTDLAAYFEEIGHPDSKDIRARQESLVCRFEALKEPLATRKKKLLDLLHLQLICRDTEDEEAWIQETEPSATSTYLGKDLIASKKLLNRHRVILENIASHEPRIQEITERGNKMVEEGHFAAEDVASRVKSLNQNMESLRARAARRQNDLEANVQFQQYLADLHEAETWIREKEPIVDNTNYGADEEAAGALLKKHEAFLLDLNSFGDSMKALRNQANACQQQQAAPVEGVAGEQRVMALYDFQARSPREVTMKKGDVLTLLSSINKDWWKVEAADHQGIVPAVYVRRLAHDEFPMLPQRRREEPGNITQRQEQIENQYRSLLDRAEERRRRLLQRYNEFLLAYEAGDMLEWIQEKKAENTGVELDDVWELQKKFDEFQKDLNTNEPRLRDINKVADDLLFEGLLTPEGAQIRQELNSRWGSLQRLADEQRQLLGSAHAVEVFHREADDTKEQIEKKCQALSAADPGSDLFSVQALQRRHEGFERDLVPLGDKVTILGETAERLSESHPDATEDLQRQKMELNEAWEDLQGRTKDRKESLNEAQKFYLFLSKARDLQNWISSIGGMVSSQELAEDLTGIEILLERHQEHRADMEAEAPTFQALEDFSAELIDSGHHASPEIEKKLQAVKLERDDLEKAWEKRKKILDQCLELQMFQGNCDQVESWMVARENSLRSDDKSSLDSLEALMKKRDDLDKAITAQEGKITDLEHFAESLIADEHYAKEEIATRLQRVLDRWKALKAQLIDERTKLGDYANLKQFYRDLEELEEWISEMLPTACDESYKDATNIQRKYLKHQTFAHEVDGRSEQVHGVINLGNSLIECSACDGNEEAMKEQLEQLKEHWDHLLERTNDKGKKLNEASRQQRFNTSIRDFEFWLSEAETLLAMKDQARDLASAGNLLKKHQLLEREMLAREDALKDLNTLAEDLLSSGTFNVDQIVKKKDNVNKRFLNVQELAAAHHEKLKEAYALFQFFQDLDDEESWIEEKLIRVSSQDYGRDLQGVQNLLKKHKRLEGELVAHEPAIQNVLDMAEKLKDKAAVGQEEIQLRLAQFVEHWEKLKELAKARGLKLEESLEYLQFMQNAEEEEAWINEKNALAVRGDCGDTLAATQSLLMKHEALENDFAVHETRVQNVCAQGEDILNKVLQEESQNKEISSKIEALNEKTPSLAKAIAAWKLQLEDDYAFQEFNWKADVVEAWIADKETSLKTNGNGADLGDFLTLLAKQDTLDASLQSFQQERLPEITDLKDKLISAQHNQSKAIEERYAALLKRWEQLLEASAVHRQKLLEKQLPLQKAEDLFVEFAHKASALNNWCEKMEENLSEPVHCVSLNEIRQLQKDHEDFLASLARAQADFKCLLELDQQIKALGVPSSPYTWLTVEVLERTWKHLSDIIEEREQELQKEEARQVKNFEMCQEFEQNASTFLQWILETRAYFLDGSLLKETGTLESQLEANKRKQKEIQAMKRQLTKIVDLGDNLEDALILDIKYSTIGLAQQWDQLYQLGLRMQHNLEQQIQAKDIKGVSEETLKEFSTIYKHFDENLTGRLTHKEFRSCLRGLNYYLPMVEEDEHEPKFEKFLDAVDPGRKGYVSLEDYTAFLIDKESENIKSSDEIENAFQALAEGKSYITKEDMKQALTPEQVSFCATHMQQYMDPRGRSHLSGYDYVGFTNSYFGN

Consider αI-spectrin (from UniProt P02549), for which the Kd (as a rule, the constant that tells how readily two partners part at equilibrium) is 1 µM.
